We go through three molecules from publication PMC4598089, “An Sp1 Modulated Regulatory Region Unique to Higher Primates Regulates Human Androgen Receptor Promoter Activity in Prostate Cancer Cells”.

Sequences and labels used below:
B1: ARS (dsDNA)
DNA 1: TCTCCACCCCGCCTCCCCCCACCCTGCCTT
DNA 2: AAGGCAGGGTGGGGGGAGGCGGGGTGGAGA
B2: Sp1-3 (dsDNA)
DNA 1: TTCTCCCCACCCGCCCCCCCGCCCCCGTCG
DNA 2: CGACGGGGGCGGGGGGGCGGGTGGGGAGAA
B3: Sp1-1 (dsDNA)
DNA 1: CGGCCCGGTGGGGGCGGGACCCGACTCGCA
DNA 2: TGCGAGTCGGGTCCCGCCCCCACCGGGCCG

Chain of Sp1 (purified recombinant) (P08047 whole entry): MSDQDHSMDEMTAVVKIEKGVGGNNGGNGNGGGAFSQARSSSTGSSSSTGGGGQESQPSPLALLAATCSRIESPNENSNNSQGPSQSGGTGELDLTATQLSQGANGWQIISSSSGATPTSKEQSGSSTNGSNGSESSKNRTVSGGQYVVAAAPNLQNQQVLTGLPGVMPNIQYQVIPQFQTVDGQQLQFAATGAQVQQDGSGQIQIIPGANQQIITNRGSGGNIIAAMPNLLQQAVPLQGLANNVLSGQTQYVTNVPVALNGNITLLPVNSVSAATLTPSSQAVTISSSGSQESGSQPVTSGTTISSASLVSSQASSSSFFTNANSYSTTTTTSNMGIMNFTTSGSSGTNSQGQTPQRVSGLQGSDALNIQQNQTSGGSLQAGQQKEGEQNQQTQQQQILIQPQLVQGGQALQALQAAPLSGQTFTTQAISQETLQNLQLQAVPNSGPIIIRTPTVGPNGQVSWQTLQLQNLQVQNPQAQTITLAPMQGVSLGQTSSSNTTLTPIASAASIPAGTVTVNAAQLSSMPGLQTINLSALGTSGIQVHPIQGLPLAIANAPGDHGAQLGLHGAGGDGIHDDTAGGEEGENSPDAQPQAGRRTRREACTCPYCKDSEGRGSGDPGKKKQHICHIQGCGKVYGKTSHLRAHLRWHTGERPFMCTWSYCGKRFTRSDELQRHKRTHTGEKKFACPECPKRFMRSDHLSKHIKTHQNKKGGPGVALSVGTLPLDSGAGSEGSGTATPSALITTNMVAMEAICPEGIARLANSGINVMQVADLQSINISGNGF

This series addresses Sp1 (purified recombinant) (Homo sapiens, UniProt P08047 1-785). Put plainly: EMSA; EMSA: 10 ug nuclear extract or 120 nM Sp1, 20 fmol biotin probe; binding buffer per earlier paper (not given); 6% native PAGE, 0.5x TBE pH 8.3, cooled gel. pur-alpha bands not listed: antibody had no effect, protein not identified in extract. The following applies: label: 3' biotin, blunt. Background: A gel shift assay detects complexes by their altered migration in electrophoresis.
B1: the binding result was “binds”. With B2 the entry was “binds”; with B3, “binds”.
